Here are results for 19 sequences from the DeepSol protein solubility set.

A short description of the series: soluble on expression in E. coli; label from the status in PepcDB or PDB records.
On to “MIQLKNVGITLSGKGYERFSLENINLEVNGEKVIILGPNGSGKTTLLRAISGLLPYSGNIFINGMEVRKIRNYIRYSTNLPEAYEIGVTVNDIVYLYEELKGLDRDLFLEMLKALKLGEEILRRKLYKLSAGQSVLVRTSLALASQPEIVGLDEPFENVDAARRHVISRYIKEYGKEGILVTHELDMLNLYKEYKAYFLVGNRLQGPISVSELLESSIVEGERNDALLVLDIMDKKVSIVKGDLGMKFGALGSLNRIYGIIGA”, for which the “soluble on expression in E. coli” value is “soluble”.

With “MIQVYKYDENFMFVEPLVVTEIDEKGDYIFPDNCTSVPLPDSPSYYLPRFDLSKQVWIETASQEYIDSLSPPPEEPSDVELLGQSLAEARILILKQNRIILNLQNEVKNLKDGTTALEHHHHHH”, the “soluble on expression in E. coli” value is listed as “soluble”.

As to “MIRITQIKISIDEPVSKVKSLVLKKLRLQESDLLDYRIYKESIDARHRGEIDFIYTVDIKLKDEARILSKKIKNVSLAPELDYVNPVIGSKKMLHRPVVIGFGPAGMFAALLLAQNGYRPIVLERGQAVDERVKSIDKFWLEGKLNPKSNVQFGEGGAGTFSDGKLTSRVRDLRGRKVLEEFVQAGAPEDILYKAHPHVGTDLLRDIVKNIRKQIIELGGEVHFDAQVEEFLIEDEELQAVKLADGNIIKTNQAILAIGHSARDTFSELYDKGVTITAKPFAVGVRIEHPQSLINKAQYKEFADHPRLGAAEYRLTYKASSGRGVYTFCMCPGGLVVPAASEEGGLVTNGMSEHARDQKNANSGLLVQVFPEDFPTDHPLAGVEFQKELEHKAFELGGSNYQAPAQLVGDFLDGKASKAMGTVEPSYALGVKPTNLESLFPDYVTQSMREAIVGLDKKMHGFALSDAVMTGVESRSSSPVRINRDEENYQSVSTKGIYPSGEGAGFAGGIVSAGIDGLKCAESMIAEFAKLLMEDLEHHHHHH”, the “soluble on expression in E. coli” value is “soluble”.

“MIRMSVLASGSTGNATYVESDKGSILVDAGLTGKKMEELFGQIDKQIQNLNGILVTHEHSDHIKGLGVLARKYKLPIYANEKTWTAIEKKDSKIPMDQKFIFNPYETKSLAGFDIESFNVSHDAIDPQFYIFHNNYKKFTILTDTGYVSDRMKGMIQGSDAFVFESNHDVDMLRMCGYPWKTKQRILSDMGHVSNEDAGRAMTDVITGSTKRIYLSHLSQDNLEHHHHHH”: the “soluble on expression in E. coli” value is on record as “not soluble”.

Turning to “MIRRRHSTTRIDRRPDGLTIYYKRANDDMEEEMLRVSVKPEGKNINDSLRSSKSSSSPPSRNSSLNLKTLKKDRKSKEGKPKSSSKHGKRMTSRAIHVSKKWSQFNRREDKTDYLDDETMQILEDLKILNCKIRKRFQIGTTCPHSLAKTDILSSSQSSKSQKSSTTTSSPVLTAVAYDYRGIPLTAPTVFPGARSEKTRETTRKAARAFARMEKEREDANNSSSRSRKTYQSRSPTGSEDSSPVIKLTRVSSGTRFPGASSPGTRERSRLMLKQCAMKKQLDEIARSLKSSKKSRKSMKSKKEKKSKPASLKTIYSKM”, the “soluble on expression in E. coli” value is on record as “not soluble”.

In the case of “MIRSTVLILASFALAVNCYECMNNTVVINAPSDISKPVFYPDGWDGQSSTPQISENQQCVMTINVPTGYYATVTFYKHFTEPGGYLYFPSRKIELLQNDDYNPYIFPSPMVKINIGTDNRNDVMNQFGFKVVYSKYPTLEKNIINIDLGSPPVAAKPSEKLTTFVGDRNSMMSLMGFTMADNSKNYLLRQTAIFGGDSTDSTYIGSLSQILNSQQILTTYGNKISVYTFGLDKLIDYPLFMGQNQVDTMGLLKYNGANCPSTGNCNVTLNGNWGAHVVVVTSYDGPETIKSFDSFPDTGVLNVYENNVSNTTCIATLNKFNYLQQLPLQVNGNMKFYELRAGGVYNMVVTRDTSRASRHQI”, the “soluble on expression in E. coli” value was “not soluble”.

As to “MIRVYIALGSNLAMPLQQVSAAREALAHLPRSRLVACSPLYRTKPLGPQDQPDFLNAVVALDTSLPPEQLLDHTQAIERNQGRVRKEQRWGPRTLDLDIMLYGDQVIKTDRLTIPHYGLKAREFMLYPLADIAPDLIFPDGESLSECLKRVDKNGLVLW”, the “soluble on expression in E. coli” value is reported as “soluble”.

On to “MISHSELRKLFYSADAVCFDVDSTVIREEGIDELAKICGVEDAVSEMTRRAMGGAVPFKAALTERLALIQPSREQVQRLIAEQPPHLTPGIRELVSRLQERNVQVFLISGGFRSIVEHVASKLNIPATNVFANRLKFYFNGEYAGFDETQPTAESGGKGKVIKLLKEKFHFKKIIMIGDGATDMEACPPADAFIGFGGNVIRQQVKDNAKWYITDFVELLGELEE”, for which the “soluble on expression in E. coli” value is “soluble”.

In the case of “MISPGEAVLMDGGTTTLEVARQLAGKQLQVVTNSLPIANLLVNQPQIDLMLIGGFLFPKTGVALGKTAVESLKSVHVRRLIISVGGITEDGLYNSNMLLVETEQQMFEAAEEVIVVTDSTKFGHSALAYLCPLDRVDHIVVDDGITEEWKDVIHKAGIELTVVET”, the “soluble on expression in E. coli” value was “not soluble”.

Consider “MISVFDIFKVGIGPSSSHTVGPMKAAKQFVDELSEHKLLAKTDRLVADVYGSLSLTGRGHSTDIAIVMGLMGYLPDNVDIERIDSVIQQVKQEHKLVLAEANPAETKIIDFDFYNDMPFHSTFLARHENGMTLKAFAGETLLYEKTFYSIGGGFIVDDEHFEQ”, for which the “soluble on expression in E. coli” value was “not soluble”.

For “MITIDGNGAVASVAFRTSEVIAIYPITPSSTMAEQADAWAGNGLKNVWGDTPRVVEMQSEAGAIATVHGALQTGALSTSFTSSQGLLLMIPTLYKLAGELTPFVLHVAARTVATHALSIFGDHSDVMAVRQTGCAMLCAANVQEAQDFALISQIATLKSRVPFIHFFDGFRTSHEINKIVPLADDTILDLMPQVEIDAHRARALNPEHPVIRGTSANPDTYFQSREATNPWYNAVYDHVEQAMNDFSAATGRQYQPFEYYGHPQAERVIILMGSAIGTCEEVVDELLTRGEKVGVLKVRLYRPFSAKHLLQALPGSVRSVAVLDRTKEPGAQAEPLYLDVMTALAEAFNNGERETLPRVIGGRYGLSSKEFGPDCVLAVFAELNAAKPKARFTVGIYDDVTNLSLPLPENTLPNSAKLEALFYGLGSDGSVSATKNNIKIIGNSTPWYAQGYFVYDSKKAGGLTVSHLRVSEQPIRSAYLISQADFVGCHQLQFIDKYQMAERLKPGGIFLLNTPYSADEVWSRLPQEVQAVLNQKKARFYVINAAKIARECGLAARINTVMQMAFFHLTQILPGDSALAELQGAIAKSYSSKGQDLVERNWQALALARESVEEVPLQPVNPHSANRPPVVSDAAPDFVKTVTAAMLAGLGDALPVSALPPDGTWPMGTTRWEKRNIAEEIPIWKEELCTQCNHCVAACPHSAIRAKVVPPEAMENAPASLHSLDVKSRDMRGQKYVLQVAPEDCTGCNLCVEVCPAKDRQNPEIKAINMMSRLEHVEEEKINYDFFLNLPEIDRSKLERIDIRTSQLITPLFEYSGACSGCGETPYIKLLTQLYGDRMLIANATGCSSIYGGNLPSTPYTTDANGRGPAWANSLFEDNAEFGLGFRLTVDQHRVRVLRLLDQFADKIPAELLTALKSDATPEVRREQVAALRQQLNDVAEAHELLRDADALVEKSIWLIGGDGWAYDIGFGGLDHVLSLTENVNILVLDTQCYSNTGGQASKATPLGAVTKFGEHGKRKARKDLGVSMMMYGHVYVAQISLGAQLNQTVKAIQEAEAYPGPSLIIAYSPCEEHGYDLALSHDQMRQLTATGFWPLYRFDPRRADEGKLPLALDSRPPSEAPEETLLHEQRFRRLNSQQPEVAEQLWKDAAADLQKRYDFLAQMAGKAEKSNTD”, the “soluble on expression in E. coli” value is recorded as “soluble”.

Turning to “MITLPTGTKIWIIAGITDMRCGFNGLASKVQNTLKDDPFSGHIFVFRGRSGKMVKILWADRDGLCLFAKRLAGDPGRESAPDASSVIHATGGDRVATSQTDRTAWHPDITRDKTRE”, the “soluble on expression in E. coli” value was “not soluble”.

Turning to “MITTQDKELLAKKGITEAQIAEQLACFQTGFPYLKLDAAASIEKGILAPDAEEKNAYLAAWDAYKNTDKIIVKFVPASGAASRMFKNLFEFLSAEYDKPTTKFEQAFFDGIKDFAFYDDLNVACQRTAGKDIPGLMEEGNYKAVVAALLETAGLNYGALPKGLLKFHKYPEGSRTPLEEHLAEGAMYAAGKSGKVNVHFTVSTEHRELFKKLVEEKAEAFGKRYGVDYYITFSEQKPNTDTIAADMDNQPFRDNGKLLFRPGGHGALIENLNDLDADIIFIKNIDNVVPDKLKADTVTYKKLIAGVLVSLQKKAFEYLELLDSGKYTHEQIMEILQFLQKQLFCKNPETKNLEDAELVIYLKNKLNRPMRVCGMVKNVGEPGGGPFLAYNSDGTISLQILESSQIDMNDPAKKEMFEKGTHFNPVDLVCAVRDYKGHKFDLVKYVDKATGFISYKSKNGKDLKALELPGLWNGAMSDWNTVFVEVPLTTFNPVKTVNDLLREQHQ”, the “soluble on expression in E. coli” value is listed as “not soluble”.

Take “MITVPHSRKVELDEIDRAILRLLQEDGRMSYSEISRRINVPESTVRARVNRLVKEGVIRKFAALINPFKAGYEIVAFIAVDAEPAKVKQVVEELAKFPEVDVLGIVTGAHDIFMQVTVKDLQELERFILEKMAKIDGIKSTETSILTSVKKWGYARVF”: the “soluble on expression in E. coli” value is “soluble”.

In the case of “MIVAFCLYKYFPFGGLQRDFMRIASTVAARGHHVRVYTQSWEGDCPKAFELIQVPVKSHTNHGRNAEYYAWVQNHLKEHPADRVVGFNKMPGLDVYFAADVCYAEKVAQEKGFLYRLTSRYRHYAAFERATFEQGKSTKLMMLTDKQIADFQKHYQTEPERFQILPPGIYPDRKYSEQIPNSREIYRQKNGIKEQQNLLLQVGSDFGRKGVDRSIEALASLPESLRHNTLLFVVGQDKPRKFEALAEKLGVRSNVHFFSGRNDVSELMAAADLLLHPAYQEAAGIVLLEAITAGLPVLTTAVCGYAHYIADANCGTVIAEPFSQEQLNEVLRKALTQSPLRMAWAENARHYADTQDLYSLPEKAADIITGGLDG”, the “soluble on expression in E. coli” value was “soluble”.

Regarding “MIVIKPFILACLIVKKRKDILGKCLYSLESIGGEIIIVDNGSTDKKKEIAQKLTDKVYDFKWMNNFVEARNFAASKVSGTWIIAVDADECIDINNFVAAMEEIKSYKDKISIFLVEIMSFVGDNGEEITVNTMARLYKNDGSVYFLWWNV”, the “soluble on expression in E. coli” value is “not soluble”.

For “MIVSMKKLAQLLLPLLLPFSAEAGGQPDFCKSINHAGGRYTVCSFDPAKNTIRIYDQDHVSGQGYRNFADLSSALWRQHMFSVFAMNGGMYHSDYSPVGLFVENGVERSPVSTRGGWGNFHLLPNGVFYLDGNTAGVLETEAYLAADPKPDFATQSGPMLVIDGKLHPRFLPDSDSLKRRNGVGVSRDGMVHFAISETTVRFYDFGTLFRDVLDAPNALYLDGTISSVDIPAMNRRDQLFSMGPIIAVVDRVPDLEHHHHHH”, the “soluble on expression in E. coli” value was “not soluble”.

As to “MIVTVTMNPSIDISYLLDHLKLDTVNRTSQVTKTPGGKGLNVTRVIHDLGGDVIATGVLGGFHGAFIANELKKANIPQAFTSIKEETRDSIAILHEGNQTEILEAGPTVSPEEISNFLENFDQLIKQAEIVTISGSLAKGLPSDFYQELVQKAHAQEVKVLLDTSGDSLRQVLQGPWKPYLIKPNLEELEGLLGQDFSENPLAAVQTALTKPMFAGIEWIVISLGKDGAIAKHHDQFYRVKIPTIQAKNPVGSGDATIAGLAYGLAKDAPAAELLKWGMAAGMANAQERMTGHVDVENVKKHLMNIQVVEIAK”, the “soluble on expression in E. coli” value is reported as “not soluble”.

For “MIYAGILAGGTGTRMGISNLPKQFLELGDRPILIHTIEKFVLEPSIEKIVVGVHGDWVSHAEDLVDKYLPLYKERIIITKGGADRNTSIKNIIEAIDAYRPLTPEDIVVTHDSVRPFITLRMIQDNIQLAQNHDAVDTVVEAVDTIVESTNGQFITDIPNRAHLYQGQTPQTFRCKDFMDLYGSLSDEEKEILTDACKIFVIKGKDVALAKGEYSNLKITTVTDLKIAKSMIEKD”, the “soluble on expression in E. coli” value is “soluble”.
